IntAct's records for PubMed 23532844

B1: Jouberin (Homo sapiens), Q8N157 (parent)
chain: MPTAESEAKVKTKVRFEELLKTHSDLMREKKKLKKKLVRSEENISPDTIRSNLHYMKETTSDDPDTIRSNLPHIKETTSDDVSAANTNNLKKSTRVTKNKLRNTQLATENPNGDASVEEDKQGKPNKKVIKTVPQLTTQDLKPETPENKVDSTHQKTHTKPQPGVDHQKSEKANEGREETDLEEDEELMQAYQCHVTEEMAKEIKRKIRKKLKEQLTYFPSDTLFHDDKLSSEKRKKKKEVPVFSKAETSTLTISGDTVEGEQKKESSVRSVSSDSHQDDEISSMEQSTEDSMQDDTKPKPKKTKKKTKAVADNNEDVDGDGVHEITSRDSPVYPKCLLDDDLVLGVYIHRTDRLKSDFMISHPMVKIHVVDEHTGQYVKKDDSGRPVSSYYEKENVDYILPIMTQPYDFKQLKSRLPEWEEQIVFNENFPYLLRGSDESPKVILFFEILDFLSVDEIKNNSEVQNQECGFRKIAWAFLKLLGANGNANINSKLRLQLYYPPTKPRSPLSVVEAFEWWSKCPRNHYPSTLYVTVRGLKVPDCIKPSYRSMMALQEEKGKPVHCERHHESSSVDTEPGLEESKEVIKWKRLPGQACRIPNKHLFSLNAGERGCFCLDFSHNGRILAAACASRDGYPIILYEIPSGRFMRELCGHLNIIYDLSWSKDDHYILTSSSDGTARIWKNEINNTNTFRVLPHPSFVYTAKFHPAVRELVVTGCYDSMIRIWKVEMREDSAILVRQFDVHKSFINSLCFDTEGHHMYSGDCTGVIVVWNTYVKINDLEHSVHHWTINKEIKETEFKGIPISYLEIHPNGKRLLIHTKDSTLRIMDLRILVARKFVGAANYREKIHSTLTPCGTFLFAGSEDGIVYVWNPETGEQVAMYSDLPFKSPIRDISYHPFENMVAFCAFGQNEPILLYIYDFHVAQQEAEMFKRYNGTFPLPGIHQSQDALCTCPKLPHQGSFQIDEFVHTESSSTKMQLVKQRLETVTEVIRSCAAKVNKNLSFTSPPAVSSQQSKLKQSNMLTAQEILHQFGFTQTGIISIERKPCNHQVDTAPTVVALYDYTANRSDELTIHRGDIIRVFFKDNEDWWYGSIGKGQEGYFPANHVASETLYQELPPEIKERSPPLSPEEKTKIEKSPAPQKQSINKNKSQDFRLGSESMTHSEMRKEQSHEDQGHIMDTRMRKNKQAGRKVTLIE
partner: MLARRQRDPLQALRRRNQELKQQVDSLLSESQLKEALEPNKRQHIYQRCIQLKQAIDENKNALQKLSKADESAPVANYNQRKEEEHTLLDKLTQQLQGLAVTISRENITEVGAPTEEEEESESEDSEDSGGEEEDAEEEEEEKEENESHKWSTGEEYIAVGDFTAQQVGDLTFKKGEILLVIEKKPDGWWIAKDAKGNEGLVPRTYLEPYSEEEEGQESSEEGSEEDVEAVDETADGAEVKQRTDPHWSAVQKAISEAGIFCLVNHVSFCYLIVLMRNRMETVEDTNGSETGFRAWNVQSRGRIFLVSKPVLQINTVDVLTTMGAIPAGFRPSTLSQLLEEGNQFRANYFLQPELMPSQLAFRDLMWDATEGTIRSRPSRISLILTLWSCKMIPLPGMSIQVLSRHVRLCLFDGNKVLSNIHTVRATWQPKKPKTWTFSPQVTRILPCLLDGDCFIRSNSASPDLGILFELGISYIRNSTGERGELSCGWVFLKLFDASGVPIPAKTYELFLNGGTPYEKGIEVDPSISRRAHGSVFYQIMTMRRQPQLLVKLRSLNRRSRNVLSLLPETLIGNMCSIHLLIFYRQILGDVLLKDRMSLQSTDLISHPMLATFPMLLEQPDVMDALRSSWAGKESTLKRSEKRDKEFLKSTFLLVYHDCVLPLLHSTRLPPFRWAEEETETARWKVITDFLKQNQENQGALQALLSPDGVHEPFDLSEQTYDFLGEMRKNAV
B2: Jouberin (Homo sapiens), Q8N157 (parent)
chain: B1 chain

Variants of: B1
Details: with nphp1_human NPHP1, O15259
V443D was tested, and the “effect of a mutation on the interaction” value was “disrupting interaction”.

Variants of: B2
Details: with hap1_human HAP1, P54257
Sequence of hap1_human HAP1, P54257 (P54257 whole entry): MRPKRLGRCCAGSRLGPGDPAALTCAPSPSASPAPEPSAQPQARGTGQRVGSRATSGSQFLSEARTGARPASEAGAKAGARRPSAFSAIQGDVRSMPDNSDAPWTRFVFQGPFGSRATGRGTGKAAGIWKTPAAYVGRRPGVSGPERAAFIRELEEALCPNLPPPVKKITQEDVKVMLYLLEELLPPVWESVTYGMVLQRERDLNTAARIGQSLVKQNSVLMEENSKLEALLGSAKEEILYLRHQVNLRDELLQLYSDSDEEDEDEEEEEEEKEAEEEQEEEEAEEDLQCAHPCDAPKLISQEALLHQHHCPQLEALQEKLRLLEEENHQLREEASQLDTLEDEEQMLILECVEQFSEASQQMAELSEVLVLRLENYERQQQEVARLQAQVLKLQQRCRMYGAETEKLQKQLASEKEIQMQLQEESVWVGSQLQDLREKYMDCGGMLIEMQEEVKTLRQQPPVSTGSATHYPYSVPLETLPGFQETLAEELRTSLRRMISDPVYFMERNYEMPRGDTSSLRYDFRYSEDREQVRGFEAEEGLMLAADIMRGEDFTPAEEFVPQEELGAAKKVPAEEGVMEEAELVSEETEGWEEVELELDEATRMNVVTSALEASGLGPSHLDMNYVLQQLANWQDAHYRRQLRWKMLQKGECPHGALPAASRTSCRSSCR
With V443D the “effect of a mutation on the interaction” value was “decreasing interaction”.
